Measured values published in patent US20130149305A1 (UNIVERSITY OF MARYLAND BALTIMORE COUNTY, published 2013).

Legend:
[1] = target: human CD28 on PHA-activated T cells of PBMC (human) (UniProt P10747); assay: cell-based or functional assay
[2] = target: T1, mouse PDL1 co-expressed with mouse CD80 on CD80-transfected 4T1 cells (4T1/CD80) (mouse, UniProt Q9EP73 19-290; Q00609 38-306); assay: flow cytometry on IFN-gamma-treated cells, sPD1-Fc detected with anti-PD1-APC
T1 construct: whole, on cells; also called PDL1 on 4T1/CD80 cells; PDL1+CD80+ 4T1/CD80 cells
T1 sequence (Q9EP73 19-290, chain 1 of 2): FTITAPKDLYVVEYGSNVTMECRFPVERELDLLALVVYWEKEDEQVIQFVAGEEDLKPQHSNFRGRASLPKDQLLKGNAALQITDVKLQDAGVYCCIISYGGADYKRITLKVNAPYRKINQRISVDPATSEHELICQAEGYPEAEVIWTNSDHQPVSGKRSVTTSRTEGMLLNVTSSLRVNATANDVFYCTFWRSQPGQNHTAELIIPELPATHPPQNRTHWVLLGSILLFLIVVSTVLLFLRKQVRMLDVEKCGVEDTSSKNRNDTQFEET
T1 sequence (Q00609 38-306, chain 2 of 2): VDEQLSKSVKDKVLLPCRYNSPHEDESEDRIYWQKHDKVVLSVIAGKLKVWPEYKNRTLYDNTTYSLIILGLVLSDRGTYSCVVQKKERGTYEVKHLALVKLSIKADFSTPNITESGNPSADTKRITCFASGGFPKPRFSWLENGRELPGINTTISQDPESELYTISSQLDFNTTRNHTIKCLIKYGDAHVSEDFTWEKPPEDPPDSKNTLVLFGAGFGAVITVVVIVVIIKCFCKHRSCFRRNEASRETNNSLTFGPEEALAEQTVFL

Sequence of human CD28 on PHA-activated T cells of PBMC (human) (P10747 19-220): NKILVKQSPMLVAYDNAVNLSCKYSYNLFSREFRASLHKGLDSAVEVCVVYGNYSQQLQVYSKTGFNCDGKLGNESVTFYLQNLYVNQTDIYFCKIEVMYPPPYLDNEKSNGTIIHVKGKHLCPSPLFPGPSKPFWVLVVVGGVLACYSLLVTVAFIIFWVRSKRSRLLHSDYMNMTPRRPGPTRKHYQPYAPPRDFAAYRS

soluble CD80-Fc: extracellular two domains of human CD80 fused to the Fc domain of IgG1 (Fc fusion)
increase of IFNγ production by PHA-activated PBMC, no tumor cells (ELISA) [1]: 14 to 28%

B1: recombinant mouse PD1-Fc fusion protein (Fc fusion, UniProt Q02242 25-167, looked up)
chain: LEVPNGPWRSLTFYPAWLTVSEGANATFTCSLSNWSEDLMLNWNRLSPSNQTEKQAAFCNGLSQPVQDARFQIIQLPNRHDFHMNILDTRRNDSGIYLCGAISLHPKAKIEESPGAELVVTERILETSTRYPSPSPKPEGRFQ
notes: Recombinant reagent; also called sPD1-Fc (mouse); soluble form of PD1; not shown: Fc part
binding result [2]: no binding
